Source: patent US20090158455A1, “COMPOSITIONS AND METHODS FOR MODULATING LYSINE PRODUCTION” (priority 2005, published 2009)
Where “and” joins values, the source holds several entries; their conditions need not be identical. Equal values may be shown once.

Tests used:
[1] = substrate: O=C(O)CCC(=O)C(=O)O; test: purified protein, by the assay type; details: other: reverse assay
[2] = substrate: O=C(O)C1=N[C@H](C(=O)O)CCC1; test: purified protein, by the assay type; details: other: forward assay
[3] = substrate: N[C@@H](CCC(=O)O)C(=O)O; test: purified protein, by the assay type; details: other: forward assay
[4] = substrate: N[C@@H](CCC[C@H](N)C(=O)O)C(=O)O; test: purified protein, by the assay type; details: other: reverse assay
[5] = substrate: O=C(O)C1=N[C@H](C(=O)O)CCC1; test: Quantitative forward and reverse assays of purified LL-DAP transaminases (Example III); assay type: biochemical, Syntrophobacter fumaroxidans MPOB; details: other: forward assay
[6] = substrate: N[C@@H](CCC(=O)O)C(=O)O; test: as above; assay type: biochemical, Syntrophobacter fumaroxidans MPOB; details: other: forward assay
[7] = substrate: O=C(O)C1=N[C@H](C(=O)O)CCC1; test: as above; assay type: biochemical, Bacteroides fragilis NCTC9343; details: other: forward assay
From the text: (§1) All orfs were processed identically for expression in E. coli. The orfs were amplified by PCR using the indicated primers. The resulting DNA fragment was digested with BamHI and SalI and cloned into pET30b. The pET30b clone was sequenced. This plasmid was transformed into E. coli BL21-CodonPlus®-RIPL for expression and purification of the recombinant protein. For functional complementation experiments, the expression cassette was subcloned from pET30b into pBAD33 (Guzman et al., 1995) using XbaI and SalI. Using these enzymes the expression cassette included the entire orf, the His-Tag coding sequence and the ribosome binding site from pET30b. pBAD33 provided an arabinose-regulated promoter.
(§2) For protein expression the E. coli strains were grown on LB at 37° C. to an OD600 nm of 0.5 and protein expression was then induced with 1 mM IPTG for 4 hr at 25° C. Cells were lysed by sonication in a solution of 50 mM sodium phosphate and 300 mM NaCl (pH 8.0). Metabolites in the extract were removed by buffer exchange using an Amicon Ultra 30,000 MWCO ultrafilter and sodium phosphate/NaCl buffer, and the concentrated soluble protein sample was used for measurement of enzyme activity as an initial assessment of enzyme function. When the recombinant protein was to be purified a larger cell culture was grown and lysed as described above, but the buffer exchange step was not carried out. […] The pure protein was then concentrated in an Amicon Ultra 30,000 MWCO ultrafilter, replacing the elution buffer with 100 mM HepesKOH, pH 7.6.
(§3) Enzyme assays were performed as described above in Examples I and II.
(§4) The catalytic properties of sll0480, BF2643, Dhaf—3980, MTH52, and SfumDRAFT0821 were studied in greater detail using purified enzymes to determine their kinetic constants using quantitative forward and reverse assays.

[8] = substrate: N[C@@H](CCC(=O)O)C(=O)O; test: as above; assay type: biochemical, Bacteroides fragilis NCTC9343; details: other: forward assay
From the text: as §1, §2, §3, §4

[9] = substrate: N[C@@H](CCC[C@H](N)C(=O)O)C(=O)O; test: as above; assay type: biochemical, Bacteroides fragilis NCTC9343; details: other: reverse assay
From the text: as §1, §2, §3, §4

[10] = Ddh-coupled, pH 7.5, 30° C., apparent Km, pH 7.5, 30.0 °C
[11] = coupled with 2-OG dehydrogenase, pH 7.5, apparent Km, pH 7.5, 30.0 °C

B1: Arabidopsis thaliana LL-DAP-AT (At4g33680), wild type, recombinant (lacks first 39 amino acids, hexa-His and S-TAG), SEQ ID NO: 7 (Arabidopsis thaliana) (protein)
chain: VNTCKCVATPQEKIEYKTKVSRNSNMSKLQAGYLFPEIARRRSAHLLKYPDAQVISLGIGDTTEPIPEVITSAMAKKAHELSTIEGYSGYGAEQGAKPLRAAIAKTFYGGLGIGDDDVFVSDGAKCDISRLQVMFGSNVTIAVQDPSYPAYVDSSVIMGQTGQFNTDVQKYGNIEYMRCTPENGFFPDLSTVGRTDIIFFCSPNNPTGAAATREQLTQLVEFAKKNGSIIVYDSAYAMYMSDDNPRSIFEIPGAEEVAMETASFSKYAGFTGVRLGWTVIPKKLLYSDGFPVAKDFNRIICTCFNGASNISQAGALACLTPEGLEAMHKVIGFYKENTNIIIDTFTSLGYDVYGGKNAPYVWVHFPNQSSWDVFAEILEKTHVVTTPGSGFGPGGEGFVRVSAFGHRENILEACRRFKQLYK
Km [1, 10]: 8300 µM and 8700 ± 300 µM | Km [2, 11]: 38 ± 4 µM | Km ([3]; coupled with 2-OG dehydrogenase, pH 7.5, apparent Km, pH 7.5): 2000 µM | Km [3, 11]: 1900 ± 100 µM | Km [4, 10]: 67 ± 2 µM

B2: Syntrophobacter fumaroxidans LL-DAP transaminase SfumDRAFT_0821 (Syntrophobacter fumaroxidans MPOB) (protein)
chain: MAFVKAERLKLLPPYLFQEIDRLKAELTAKGVDVINLGVGDPDLPTPDHIIARLKTAAEDPSTHQYPSYSGMNDFKVSVAGWYKRRFGVELDPLSEVLTLIGSKEGLAHFPLAVINPGDLALVPTPAYPVYHVATMFAGGESYFMPLVRENGFLPDLDSIPADVARRAKVMFINYPNNPTGATAERDFFEKVIAFAREYDVIVCHDAAYTEMAFGGYRPLSFLELPGAGEVGVEFHSLSKTYNMTGWRLGFAVGNADILAGLGQVKSNIDSGAFNAVQWAGITALEGDQGCVVEMQRIYKERLDILIEGLKRIGLHPEVPRATFYVWCPTPPGYSSKDFSSLLLREAGIVATPGSGFGAPGEGYIRMALTVDKERVREAVERMRKLSF
Km [1]: 700 µM | Km [4]: 29 µM | Km [5]: 12 µM | Km [6]: 700 µM

B3: Bacteroides fragilis LL-DAP transaminase Bf2643 (Bacteroides fragilis YCH46) (protein)
chain: MALVNEHFLKLPGSYLFSDIAKKVNTFKITHPKRDIIRLGIGDVTRPLPKACIEAMHKAVEEMTSAETFRGYGPEQGYDFLIEAIIKNDYAPRGIHLSPTEVFVNDGAKSDTGNIGDILRHDNSVGVTDPIYPVYIDSNVMCGRAGVLDTESGKWSNVTYMPCTAENHFIPAIPEKRIDIVYLCYPNNPTGTTLTKAELKKWVDYALANDTLILFDAAYEAYIREPDIPHSIYEIKGAKKCAIEFRSFSKTAGFTGVRCGYTVVPKELTAATLEGERIPLNRLWNRRQCTKFNGTSYITQRAAEAIYTPEGKEQIQETINYYMTNARIMKEGLESTGLKVYGGVNAPYLWVKTPNGTSSWRFFDQMLYEANVVGTPGVGFGPSGEGYIRLTAFGERDDCIEAMRRIKNRL
Km [1]: 1200 µM | Km [7]: 96 µM | Km [8]: 1300 µM | Km [9]: 10 µM

B4: Arabidopsis thaliana LL-DAP transaminase At4g33680, SEQ ID NO: 7 (Arabidopsis thaliana) (protein)
chain: B1 chain
Km [1]: 1400 µM | Km [2]: 25 µM | Km [3]: 1400 µM | Km [4]: 62 µM
